Source: article PMC10500059, “Allosteric activation of RhlB by RNase E induces partial duplex opening in substrate RNA” (Frontiers in Molecular Biosciences, 2023)

Experiments:
[1] = molecular target: T1, RhlB (E. coli DEAD-box RNA helicase), wild type (E. coli) (UniProt P0A8J8)
T1 sequence: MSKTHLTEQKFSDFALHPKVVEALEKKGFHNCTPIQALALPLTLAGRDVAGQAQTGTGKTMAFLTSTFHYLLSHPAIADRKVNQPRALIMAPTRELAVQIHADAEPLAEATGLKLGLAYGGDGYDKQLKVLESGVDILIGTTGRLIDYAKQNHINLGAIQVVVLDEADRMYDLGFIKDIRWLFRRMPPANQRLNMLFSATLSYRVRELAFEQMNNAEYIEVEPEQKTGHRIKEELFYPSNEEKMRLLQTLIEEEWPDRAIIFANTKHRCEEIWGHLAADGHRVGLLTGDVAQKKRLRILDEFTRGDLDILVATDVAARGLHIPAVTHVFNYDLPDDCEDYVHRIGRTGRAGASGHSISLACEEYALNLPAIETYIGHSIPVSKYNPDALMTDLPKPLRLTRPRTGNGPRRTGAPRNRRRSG

[2] = molecular target: T1, RhlB (E. coli DEAD-box RNA helicase), wild type (E. coli); remark: listed apart in the source
[3] = molecular target: T2, RhlB (E. coli DEAD-box RNA helicase), wild type (E. coli, UniProt P0A8J8 1-421); experiment: cell-based or functional assay
T2 sequence (looked up): T1 sequence

RhlB = molecular target: T3, RhlB (Escherichia coli, UniProt P0A8J8 1-421); experiment: NMR (1H imino titration); no ATP; 4.5 mM Mg2+; NMR: 150 mM KCl, 25 mM Tris/HCl, 5 mM DTT, 4.5 mM MgCl2, pH 8.3, 288 K, 100 µM RNA; EMSA: 150 mM NaCl, 25 mM Tris, 1.5 mM MgCl2, 5 mM DTT, 10% glycerol, pH 8.3, 4 C, 1.5 µM RNA; conditions: protein: recombinant, tags: C-terminal TEV site (ENLYFQG) + 6xHis, His-tag removed by TEV, site remnant left
T3 sequence: T1 sequence

RhlB;RNase E (694-790) = RhlB;RNase E (694-790) (Escherichia coli;Escherichia coli, UniProt P0A8J8;P21513 1-421;694-790, |); experiment: as above; conditions: protein: recombinant;recombinant, tags: C-terminal TEV site (ENLYFQG) + 6xHis, His-tag removed by TEV, site remnant left;N-terminal 6xHis-TEV, purified analogously (tag cleaved), copies: 1;1
[4] = label: none (titration), single strand, two weak base pairs under NMR conditions
[5] = label: none (titration), 3' overhang 8 nt

“RNase E (628-843) (from UniProt P21513 628-843) (domain or fragment)” showed an ATP turnover of RhlB with 5'-OV RNA, activation factor over RhlB alone, 31P real-time NMR experiment (400 uM RhlB/RNase E 1:1, 100 uM RNA) [1] of 2 fold, an ATP turnover of RhlB with 5'-OV RNA, activation factor over RhlB alone, phosphate assay [1] of 10 fold and an ATP turnover rate of RhlB (EnzChek phosphate assay, 2.4 uM RhlB and RNase E fragment, 6 uM RNA substrates of different topology), fold increase over RhlB alone [2] of less than 27 fold.

B1: RNase E (694-790) (domain or fragment, E. coli, UniProt P21513 694-790, looked up)
chain: AKALNVEEQSVQETEQEERVRPVQPRRKQRQLNQKVRYEQSVAEEAVVAPVVEETVAAEPIVQEAPAPRTELVKVPLPVVAQTAPEQQEENNADNRD
For B1, the “ATP turnover rate of RhlB (EnzChek phosphate assay, 2.4 uM RhlB and RNase E fragment, 6 uM RNA substrates of different topology), fold increase over RhlB alone” value [3] was no more than 6 fold.

For UAGUAACUAAAACAUUAAAUU (ssRNA) [21 nt single strand], the Kd (RhlB; [4]) was 94.9 ± 59.2 µM and the Kd (RhlB;RNase E (694-790); [4]) was 264.5 ± 1 µM.

B2: 3'-OV duplex (dsRNA)
RNA 1: UAGUAACUAAAACAUUAAAUU
RNA 2: GUUUUAGUUACUA
For B2, the Kd (RhlB; [5]) was 216 ± 33.7 µM and the Kd (RhlB;RNase E (694-790); [5]) was 82.3 ± 27.3 µM.

B3: Blunt duplex 13 nt (dsRNA)
RNA 1: UAGUAACUAAAAC
RNA 2: GUUUUAGUUACUA
For B3, the Kd (RhlB; label: none, blunt) was 155 ± 33.7 µM and the Kd (RhlB;RNase E (694-790); label: none, blunt) was 488 ± 40.5 µM.

B4: Blunt duplex 21 nt (dsRNA)
RNA 1: UAGUAACUAAAACAUUAAAUU
RNA 2: AAUUUAAUGUUUUAGUUACUA
B4 showed a Kd (RhlB; label: none, blunt) of 162 ± 30.3 µM.
